Source: US20230051304A1 (Regeneron, published 2023)
Changes are numbered by the printed parent chain. Read-outs that look alike come from different tables or passages of the source. Each block holds one binder with its values, some of them ahead of it.

Key:
[1] = target: T1, murine IL12 receptor complex (IL12Rβ1 and IL12Rβ2) (mouse, UniProt Q60837 20-738; P97378 24-874); assay: cell-based or functional assay
[2] = target: T1, murine IL12 receptor complex (IL12Rβ1 …); assay: cell-based or functional assay; remark: listed apart in the source

T1 sequence (Q60837 20-738, chain 1 of 2): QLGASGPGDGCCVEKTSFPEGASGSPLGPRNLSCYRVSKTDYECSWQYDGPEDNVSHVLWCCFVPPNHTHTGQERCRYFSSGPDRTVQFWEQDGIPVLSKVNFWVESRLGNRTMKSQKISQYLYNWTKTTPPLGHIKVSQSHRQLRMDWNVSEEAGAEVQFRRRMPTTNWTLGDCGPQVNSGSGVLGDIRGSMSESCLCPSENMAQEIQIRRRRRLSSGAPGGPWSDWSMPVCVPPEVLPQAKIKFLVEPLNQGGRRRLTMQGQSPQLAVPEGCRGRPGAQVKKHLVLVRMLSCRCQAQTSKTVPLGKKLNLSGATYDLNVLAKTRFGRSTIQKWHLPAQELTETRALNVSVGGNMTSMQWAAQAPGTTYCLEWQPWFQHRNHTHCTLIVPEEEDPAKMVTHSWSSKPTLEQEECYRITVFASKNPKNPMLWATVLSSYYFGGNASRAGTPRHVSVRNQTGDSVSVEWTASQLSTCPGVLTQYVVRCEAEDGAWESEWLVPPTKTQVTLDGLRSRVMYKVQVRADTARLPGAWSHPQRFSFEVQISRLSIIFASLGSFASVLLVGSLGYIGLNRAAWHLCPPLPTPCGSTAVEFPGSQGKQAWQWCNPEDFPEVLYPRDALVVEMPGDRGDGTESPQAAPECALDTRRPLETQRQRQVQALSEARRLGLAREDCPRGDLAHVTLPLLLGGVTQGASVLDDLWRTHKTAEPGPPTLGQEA
T1 sequence (P97378 24-874, chain 2 of 2): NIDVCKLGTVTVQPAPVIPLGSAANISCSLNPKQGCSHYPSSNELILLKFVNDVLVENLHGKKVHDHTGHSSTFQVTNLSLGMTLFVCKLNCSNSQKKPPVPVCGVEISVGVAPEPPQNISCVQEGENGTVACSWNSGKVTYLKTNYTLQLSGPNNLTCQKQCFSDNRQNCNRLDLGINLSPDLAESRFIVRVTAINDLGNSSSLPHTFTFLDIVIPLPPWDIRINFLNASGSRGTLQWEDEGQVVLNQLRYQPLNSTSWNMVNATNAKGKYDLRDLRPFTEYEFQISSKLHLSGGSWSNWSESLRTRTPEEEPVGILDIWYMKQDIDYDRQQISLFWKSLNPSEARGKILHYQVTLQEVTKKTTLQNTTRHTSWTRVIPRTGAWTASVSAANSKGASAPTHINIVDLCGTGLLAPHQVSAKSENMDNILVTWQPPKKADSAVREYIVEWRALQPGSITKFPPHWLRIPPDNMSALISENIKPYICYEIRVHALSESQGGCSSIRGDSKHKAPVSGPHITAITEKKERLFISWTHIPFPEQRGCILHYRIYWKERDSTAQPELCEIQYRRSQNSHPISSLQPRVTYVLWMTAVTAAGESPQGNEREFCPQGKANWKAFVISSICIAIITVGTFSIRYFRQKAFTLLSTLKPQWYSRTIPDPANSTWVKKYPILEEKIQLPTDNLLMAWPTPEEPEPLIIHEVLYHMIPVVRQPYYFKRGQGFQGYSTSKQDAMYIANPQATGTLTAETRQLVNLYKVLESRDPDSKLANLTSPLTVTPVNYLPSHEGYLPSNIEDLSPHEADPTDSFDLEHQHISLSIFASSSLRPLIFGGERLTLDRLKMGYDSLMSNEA

B4: Bivalent: IL12*(p40*-p35*)-Fc (Fc fusion)
chain: MWELEKDVYVVEVDWTPDAPGETVNLTCDTPEEDDITWTSDQRHGVIGSGKTLTITVKEFLDAGQYTCHKGGETLSHSHLLLHKKENGIWSTEILKNFKNKTFLKCEAPNYSGRFTCSWLVQRNMDLKFNIKSSSSSPDSRAVTCGMASLSAEKVTLDQRDYEKYSVSCQEDVTSPTAEETLPIELALEARQQNKYENYSTSFFIRDIIKPDPPKNLQMKPLKNSQVEVSWEYPDSWSTPHSYFSLKFFVRIQRKKEKMKETEEGCNQKGAFLVEKTSTEVQCKGGNVCVQAQDRYYNSSCSKWACVPCRVRSGGGGSGGGGSGGGGSRVIPVSGPARCLSQSRNLLKTTDDMVKTAREKLKHYSCTAEDIDHEDITRDQTSTLKTCLPLELHKNESSLATRETSSTTRGSCLPPQKTSLMMTLCLGSIYEDLKMYQTEFQAINAALQNHNHQQIILDKGMLVAIDELMQSLNHNGETLRQKPPVGEADPYRVKMKLCILLHAFSTRVVTINRVMGYLSSAGGGGSGGGGSGGGGSESKYGPPCPPCPAPPVAGPSVFLFPPKPKDTLMISRTPEVTCVVVDVSQEDPEVQFNWYVDGVEVHNAKTKPREEQFNSTYRVVSVLTVLHQDWLNGKEYKCKVSNKGLPSSIEKTISKAKGQPREPQVYTLPPSQEEMTKNQVSLTCLVKGFYPSDIAVEWESNGQPENNYKTTPPVLDSDGSFFLYSRLTVDKSRWQEGNVFSCSVMHEALHNHYTQKSLSLSLGK
- EC50 (M); STAT3-Luc reporter, CTLL2/STAT3-Luc cells [2]: 1.72e-11 M
- Fold induction at 6.25 nM; STAT3-Luc reporter, CTLL2/STAT3-Luc cells [2]: 7.01 fold
- Max fold induction; STAT3-Luc reporter, CTLL2/STAT3-Luc cells [2]: 8.48 fold

B6: Fc-IL12(mutein 1) (Fc fusion)
chain: ESKYGPPCPPCPAPPVAGPSVFLFPPKPKDTLMISRTPEVTCVVVDVSQEDPEVQFNWYVDGVEVHNAKTKPREEQFNSTYRVVSVLTVLHQDWLNGKEYKCKVSNKGLPSSIEKTISKAKGQPREPQVYTLPPSQEEMTKNQVSLTCLVKGFYPSDIAVEWESNGQPENNYKTTPPVLDSDGSFFLYSRLTVDKSRWQEGNVFSCSVMHEALHNHYTQKSLSLSLGKGGGGSGGGGSGGGGSMWELEKDVYVVEVDWTPDAPGETVNLTCDTPEEDDITWTSDQRHGVIGSGKTLTITVKEFLDAGQYTCHKGGETLSHSHLLLHKKENGIWSTEILKNFKNKTFLKCEAPNYSGRFTCSWLVQRNMDLKFNIKSSSSSPDSRAVTCGMASLSAEKVTLDQRDYEKYSVSCQEDVTCPTAEETLPIELALEARQQNKYENYSTSFFIRDIIKPDPPKNLQMKPLKNSQVEVSWEYPDSWSTPHSYFSLKFFVRIQRKKEKMKETEEGCNQKGAFLVEKTSTEVQCKGGNVCVQAQDRYYNSSCSKWACVPCRVRSGGGGSGGGGSGGGGSRVIPVSGPARCLSQSRNLLKTTDDMVKTAREKLKHYSCTAEDIDHEDITRDQTSTLKTCLPLELHKNESCLATRETSSTTRGSCLPPQKTSLMMTLCLGSIYEDLKMYQTEFQAINAALQNHNHQQIILDKGMLVAIDELMQSLNHNGETLRQKPPVGEADPARVKMKLCILLHAFSTRVVTINRVMGYLSSA
- EC50 (M); STAT3-Luc reporter, CTLL2/STAT3-Luc cells [1]: 1.76e-10 M
- Fold induction at 20 nM; STAT3-Luc reporter, CTLL2/STAT3-Luc cells [1]: 4.52 fold
- Max fold induction; STAT3-Luc reporter, CTLL2/STAT3-Luc cells [1]: 4.52 fold

B8: Fc-IL12(mutein 11) (Fc fusion)
chain: B6 chain with E336A, K339A, K342A, K344A, A734Y
- EC50 (M); STAT3-Luc reporter, CTLL2/STAT3-Luc cells [1]: 1.33e-09 M
- Fold induction at 20 nM; STAT3-Luc reporter, CTLL2/STAT3-Luc cells [1]: 8.93 fold
- Max fold induction; STAT3-Luc reporter, CTLL2/STAT3-Luc cells [1]: 10.2 fold

B10: Fc-IL12(mutein 3) (Fc fusion)
chain: B6 chain with A734R
- Fold induction at 20 nM; STAT3-Luc reporter, CTLL2/STAT3-Luc cells [1]: 1.06 fold
- Max fold induction; STAT3-Luc reporter, CTLL2/STAT3-Luc cells [1]: 1.11 fold

B12: Fc-IL12(mutein 4) (Fc fusion)
chain: B6 chain with A734E
- Fold induction at 20 nM; STAT3-Luc reporter, CTLL2/STAT3-Luc cells [1]: 1.12 fold
- Max fold induction; STAT3-Luc reporter, CTLL2/STAT3-Luc cells [1]: 1.16 fold

Second part, the binder after the results:

- Fold induction at 20 nM; STAT3-Luc reporter, CTLL2/STAT3-Luc cells [1]: 1.04 fold
- Max fold induction; STAT3-Luc reporter, CTLL2/STAT3-Luc cells [1]: 1.1 fold
B1: Fc-IL12(mutein 12) (Fc fusion)
chain: ESKYGPPCPPCPAPPVAGPSVFLFPPKPKDTLMISRTPEVTCVVVDVSQEDPEVQFNWYVDGVEVHNAKTKPREEQFNSTYRVVSVLTVLHQDWLNGKEYKCKVSNKGLPSSIEKTISKAKGQPREPQVYTLPPSQEEMTKNQVSLTCLVKGFYPSDIAVEWESNGQPENNYKTTPPVLDSDGSFFLYSRLTVDKSRWQEGNVFSCSVMHEALHNHYTQKSLSLSLGKGGGGSGGGGSGGGGSNGIWSTEILKNFKNKTFLKCEAPNYSGRFTCSWLVQRNMDLKFNIKSSSSSPDSRAVTCGMASLSAEKVTLDQRDYEKYSVSCQEDVTCPTAEETLPIELALEARQQNKYENYSTSFFIRDIIKPDPPKNLQMKPLKNSQVEVSWEYPDSWSTPHSYFSLKFFVRIQRKKEKMKETEEGCNQKGAFLVEKTSTEVQCKGGNVCVQAQDRYYNSSCSKWACVPCRVRSGGGGSGGGGSGGGGSRVIPVSGPARCLSQSRNLLKTTDDMVKTAREKLKHYSCTAEDIDHEDITRDQTSTLKTCLPLELHKNESCLATRETSSTTRGSCLPPQKTSLMMTLCLGSIYEDLKMYQTEFQAINAALQNHNHQQIILDKGMLVAIDELMQSLNHNGETLRQKPPVGEADPYRVKMKLCILLHAFSTRVVTINRVMGYLSSA

- Fold induction at 20 nM; STAT3-Luc reporter, CTLL2/STAT3-Luc cells [1]: 1.37 fold
- Max fold induction; STAT3-Luc reporter, CTLL2/STAT3-Luc cells [1]: 27.5 fold
B2: IL12(mutein 13)-Fc (Fc fusion)
chain: NGIWSTEILKNFKNKTFLKCEAPNYSGRFTCSWLVQRNMDLKFNIKSSSSSPDSRAVTCGMASLSAEKVTLDQRDYEKYSVSCQEDVTCPTAEETLPIELALEARQQNKYENYSTSFFIRDIIKPDPPKNLQMKPLKNSQVEVSWEYPDSWSTPHSYFSLKFFVRIQRKKEKMKETEEGCNQKGAFLVEKTSTEVQCKGGNVCVQAQDRYYNSSCSKWACVPCRVRSGGGGSGGGGSGGGGSRVIPVSGPARCLSQSRNLLKTTDDMVKTAREKLKHYSCTAEDIDHEDITRDQTSTLKTCLPLELHKNESCLATRETSSTTRGSCLPPQKTSLMMTLCLGSIYEDLKMYQTEFQAINAALQNHNHQQIILDKGMLVAIDELMQSLNHNGETLRQKPPVGEADPYRVKMKLCILLHAFSTRVVTINRVMGYLSSAGGGGSGGGGSGGGGSESKYGPPCPPCPAPPVAGPSVFLFPPKPKDTLMISRTPEVTCVVVDVSQEDPEVQFNWYVDGVEVHNAKTKPREEQFNSTYRVVSVLTVLHQDWLNGKEYKCKVSNKGLPSSIEKTISKAKGQPREPQVYTLPPSQEEMTKNQVSLTCLVKGFYPSDIAVEWESNGQPENNYKTTPPVLDSDGSFFLYSRLTVDKSRWQEGNVFSCSVMHEALHNHYTQKSLSLSLGK

- EC50 (M); STAT3-Luc reporter, CTLL2/STAT3-Luc cells [2]: 1.16e-11 M
- Fold induction at 6.25 nM; STAT3-Luc reporter, CTLL2/STAT3-Luc cells [2]: 7.52 fold
- Max fold induction; STAT3-Luc reporter, CTLL2/STAT3-Luc cells [2]: 15.4 fold
B3: Bivalent: IL12(p40-p35)-Fc (Fc fusion)
chain: B4 chain with S175C, S398C

- EC50 (M); STAT3-Luc reporter, CTLL2/STAT3-Luc cells [2]: 6.47e-11 M
- Fold induction at 6.25 nM; STAT3-Luc reporter, CTLL2/STAT3-Luc cells [2]: 9.58 fold
- Max fold induction; STAT3-Luc reporter, CTLL2/STAT3-Luc cells [2]: 9.89 fold
B5: Monovalent: IL12(p35xp40)-Fc (Fc fusion)
chain 1: RVIPVSGPARCLSQSRNLLKTTDDMVKTAREKLKHYSCTAEDIDHEDITRDQTSTLKTCLPLELHKNESCLATRETSSTTRGSCLPPQKTSLMMTLCLGSIYEDLKMYQTEFQAINAALQNHNHQQIILDKGMLVAIDELMQSLNHNGETLRQKPPVGEADPYRVKMKLCILLHAFSTRVVTINRVMGYLSSAGGGGSGGGGSGGGGSESKYGPPCPPCPAPPVAGPSVFLFPPKPKDTLMISRTPEVTCVVVDVSQEDPEVQFNWYVDGVEVHNAKTKPREEQFNSTYRVVSVLTVLHQDWLNGKEYKCKVSNKGLPSSIEKTISKAKGQPREPQVYTLPPSQEEMTKNQVSLWCLVKGFYPSDIAVEWESNGQPENNYKTTPPVLDSDGSFFLYSRLTVDKSRWQEGNVFSCSVMHEALHNHYTQKSLSLSLGK
chain 2: MWELEKDVYVVEVDWTPDAPGETVNLTCDTPEEDDITWTSDQRHGVIGSGKTLTITVKEFLDAGQYTCHKGGETLSHSHLLLHKKENGIWSTEILKNFKNKTFLKCEAPNYSGRFTCSWLVQRNMDLKFNIKSSSSSPDSRAVTCGMASLSAEKVTLDQRDYEKYSVSCQEDVTCPTAEETLPIELALEARQQNKYENYSTSFFIRDIIKPDPPKNLQMKPLKNSQVEVSWEYPDSWSTPHSYFSLKFFVRIQRKKEKMKETEEGCNQKGAFLVEKTSTEVQCKGGNVCVQAQDRYYNSSCSKWACVPCRVRSGGGGSGGGGSGGGGSESKYGPPCPPCPAPPVAGPSVFLFPPKPKDTLMISRTPEVTCVVVDVSQEDPEVQFNWYVDGVEVHNAKTKPREEQFNSTYRVVSVLTVLHQDWLNGKEYKCKVSNKGLPSSIEKTISKAKGQPREPQVYTLPPSQEEMTKNQVSLSCAVKGFYPSDIAVEWESNGQPENNYKTTPPVLDSDGSFFLVSRLTVDKSRWQEGNVFSCSVMHEALHNRFTQKSLSLSPGK

- EC50 (M); STAT3-Luc reporter, CTLL2/STAT3-Luc cells [1]: 2.6e-10 M
- Fold induction at 20 nM; STAT3-Luc reporter, CTLL2/STAT3-Luc cells [1]: 5.41 fold
- Max fold induction; STAT3-Luc reporter, CTLL2/STAT3-Luc cells [1]: 5.9 fold
B7: Fc-IL12(mutein 2) (Fc fusion)
chain: B6 chain with A734V

- EC50 (M); STAT3-Luc reporter, CTLL2/STAT3-Luc cells [1]: 8.05e-10 M
- Fold induction at 20 nM; STAT3-Luc reporter, CTLL2/STAT3-Luc cells [1]: 10 fold
- Max fold induction; STAT3-Luc reporter, CTLL2/STAT3-Luc cells [1]: 10.1 fold
B9: Fc-IL12(mutein 8) (Fc fusion)
chain: B6 chain with W258A, A734Y

- EC50 (M); STAT3-Luc reporter, CTLL2/STAT3-Luc cells [2]: 1.8e-11 M
- Fold induction at 6.25 nM; STAT3-Luc reporter, CTLL2/STAT3-Luc cells [2]: 5.96 fold
- Max fold induction; STAT3-Luc reporter, CTLL2/STAT3-Luc cells [2]: 7.83 fold
B11: Bivalent: Fc-IL12*(p40*-p35*) (Fc fusion)
chain: B6 chain with C418S, C641S, A734Y
